Among the data in patent US20260139049A1 (PEDIATRIC IMMUNITY AND HEALTHCARE GUANGZHOU BIOTECHNOLOGY, published 2026) are EC50 and Geom.Mean values, retold here.

Broadly, the EC50 is the midpoint of the concentration-response curve.

Assay [1] deals with T1, human CLDN6 (human, UniProt P56747 1-220).
T1 construct: whole, on cells; four-transmembrane protein; also called claudin-6; HEK293T-CLDN6
T1 sequence (looked up): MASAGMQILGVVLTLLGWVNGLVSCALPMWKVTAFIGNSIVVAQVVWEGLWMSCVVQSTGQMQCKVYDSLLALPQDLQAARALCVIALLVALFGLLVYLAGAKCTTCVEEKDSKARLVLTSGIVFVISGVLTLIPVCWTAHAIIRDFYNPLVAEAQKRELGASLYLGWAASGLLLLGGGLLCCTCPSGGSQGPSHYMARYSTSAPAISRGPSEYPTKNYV
Put plainly: FACS on HepG2 tumour cells; target on the cells taken as CLDN6. The procedure: (§1) 50 μL of an antibody to be tested was added to a 96-well plate, then 1×10⁵ cells were added to each well, and incubation was conducted at 4° C. for 1 h. Cells were washed three times with PBS. […] Finally, cells were washed three times with PBS, and signals were read using FACS. A binding capacity of the antibody to each tumor cell was analyzed based on detection data.

Assay [2] deals with T1, human CLDN6. As to the kind of experiment: FACS on PA-1 tumour cells; target on the cells taken as CLDN6. On the procedure: as §1
A further assay concerns the target T2, human CLDN3 (human, UniProt O15551 1-220).
T2 construct: whole, on cells; also called HEK293T-CLDN3
T2 sequence (looked up): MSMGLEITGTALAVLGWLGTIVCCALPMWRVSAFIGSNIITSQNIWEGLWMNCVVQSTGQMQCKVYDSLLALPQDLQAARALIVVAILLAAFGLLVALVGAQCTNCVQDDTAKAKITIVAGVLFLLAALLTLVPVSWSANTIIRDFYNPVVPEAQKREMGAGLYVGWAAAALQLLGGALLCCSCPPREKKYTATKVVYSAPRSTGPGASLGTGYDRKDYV
As to the kind of experiment: FACS on 293T-CLDN3 cells, 10 µg/mL. The procedure:
(§2) 50 μL of an antibody to be tested was added to a 96-well plate, then 1× 10⁵ cells were added to each well, and incubation was conducted at 4° C. for 1 h. Cells were washed three times with PBS. […] Finally, cells were washed three times with PBS, and signals were read using FACS. Binding capacities of the antibody to CLDN9, CLDN3, and CLDN4 were analyzed separately based on detection data.

Assay [3] addresses T3, human CLDN9 (human, UniProt O95484 1-217).
T3 construct: whole, on cells; also called HEK293T-CLDN9
T3 sequence (looked up): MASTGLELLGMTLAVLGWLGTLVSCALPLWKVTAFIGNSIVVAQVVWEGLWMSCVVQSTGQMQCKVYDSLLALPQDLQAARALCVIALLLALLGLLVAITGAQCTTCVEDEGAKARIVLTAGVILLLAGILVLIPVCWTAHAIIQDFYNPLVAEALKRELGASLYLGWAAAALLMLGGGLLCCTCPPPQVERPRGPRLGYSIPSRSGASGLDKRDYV
Put plainly: FACS on 293T-CLDN9 cells, 10 µg/mL. The procedure:
as §2

The target of assay [4] is T1, human CLDN6. Put plainly: FACS on CLDN6 cells (same value as Table 3, HEK293T-CLDN6).
For assay [5], the target named is T4, monkey CLDN6 (Cyno CLDN6) (monkey (Cyno)).
T4 construct: whole, on cells; also called CHO-K1-Cyno CLDN6
Put plainly: FACS on CHO-K1-Cyno CLDN6 cells.

The target in a further assay is T5, mouse CLDN6 (mouse, UniProt Q9Z262 1-219).
T5 construct: whole, on cells; also called CHO-K1-Mouse CLDN6
T5 sequence (looked up): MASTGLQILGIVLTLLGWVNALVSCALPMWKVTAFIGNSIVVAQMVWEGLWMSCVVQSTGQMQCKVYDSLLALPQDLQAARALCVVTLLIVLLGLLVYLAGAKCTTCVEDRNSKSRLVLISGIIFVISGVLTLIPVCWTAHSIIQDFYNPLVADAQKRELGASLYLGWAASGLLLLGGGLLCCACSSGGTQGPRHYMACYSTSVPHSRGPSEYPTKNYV
As to the kind of experiment: FACS on CHO-K1-Mouse CLDN6 cells.

Assay [6] addresses T1, human CLDN6. As to the kind of experiment: FACS on HepG2 tumour cells; target on the cells taken as CLDN6. The procedure: as §1
The source holds these as a separate data set.

Assay [7] has as its target T1, human CLDN6. The description is as above. The procedure: as §1
The source holds these as a separate data set.

For assay [8], the target named is T3, human CLDN9. Put plainly: FACS on 293T-CLDN9 cells, 10 µg/mL. On the procedure: as §2
This is another data set of the same source.

The target of assay [9] is T1, human CLDN6. Put plainly: FACS on PA-1 tumour cells; target on the cells taken as CLDN6. This is another data set of the same source.
Assay [10] concerns the target T1, human CLDN6. The assay is described as above. On the procedure: as §1
The source holds these as a separate data set.

The target of assay [11] is T1, human CLDN6. Put plainly: FACS on HEK293T-CLDN6 cells. The procedure:
To detect a binding capacity of a chimeric or humanized antibody to CLDN6, a CLDN6-expressing cell line HEK293T-CLDN6 and a CLDN6-negative control cell line HEK293T were washed three times with PBS. 1×10⁵ test cells and 50 μL of an antibody solution to be tested were added to a 96-well plate, and incubated at 4° C. for 1 h. The cells were then washed three times with PBS. […] Finally, cells were washed three times with PBS, and signals were read using FACS.
An EC50 value (a concentration of an antibody that binds to half of binding sites at equilibrium) is calculated through nonlinear regression.

Assay [12] concerns the target T1, human CLDN6. Put plainly: FACS on 293T-CLDN6 cells, 10 µg/mL.
The target of assay [13] is T1, human CLDN6. Put plainly: FACS on HepG2 tumour cells; target on the cells taken as CLDN6. This is another data set of the same source.
Assay [14] concerns the target T1, human CLDN6. As to the kind of experiment: FACS on PA-1 tumour cells; target on the cells taken as CLDN6. The procedure: as §1
This is another data set of the same source.

Where two headings read alike, the source gives them in different places.

B1: IMAB027 (antibody, human IgG1, kappa, V domains shown)
VH: EVQLQQSGPELVKPGASMKISCKASGYSFTGYTMNWVKQSHGKNLEWIGLINPYNGGTIYNQKFKGKATLTVDKSSSTAYMELLSLTSEDSAVYYCARDYGFVLDYWGQGTTLTVSS
VL: IVLTQSPAIMSASPGEKVTITCSASSSVSYLHWFQQKPGTSPKLWVYSTSNLPSGVPARFGGSGSGTSYSLTISRMEAEDAATYYCQQRSIYPPWTFGGGTKLEIKR
notes: variable regions of mAb206-LCC on human IgG1 constant regions; also called benchmark antibody; control antibody
With B1, the EC50 is 0.583 µg/mL with human CLDN6 [1]; 0.223 µg/mL with human CLDN6 [2]; 0.213 µg/mL with human CLDN6 [4]; 0.131 µg/mL in assay [5]; 0.181 µg/mL in the assay with mouse CLDN6; 0.242 µg/mL in the assay with human CLDN6 [6]. Further, the EC50 with human CLDN6 [7] came out at 0.959 µg/mL; in the assay with human CLDN6 [9], 0.0741 µg/mL; in the assay with human CLDN6 [10], 0.141 µg/mL; with human CLDN6 [11] it was 0.0461 µg/mL; with human CLDN6 [13], 0.192 µg/mL; with human CLDN6 [14] it was 0.141 µg/mL. Also, the Geom.Mean stood at 151 in the assay with human CLDN3, 3810 with human CLDN9 [3], 1810 in the assay with human CLDN9 [8] and 23600 in the assay with human CLDN6 [12].
